Conditions in all cases: tags: SV40 NLS; FokI fusion
One data set has as its target T1, IgH (2) left V2 TALEN (synthetic, UniProt Q56830 SEQ:15-719).
T1 chain: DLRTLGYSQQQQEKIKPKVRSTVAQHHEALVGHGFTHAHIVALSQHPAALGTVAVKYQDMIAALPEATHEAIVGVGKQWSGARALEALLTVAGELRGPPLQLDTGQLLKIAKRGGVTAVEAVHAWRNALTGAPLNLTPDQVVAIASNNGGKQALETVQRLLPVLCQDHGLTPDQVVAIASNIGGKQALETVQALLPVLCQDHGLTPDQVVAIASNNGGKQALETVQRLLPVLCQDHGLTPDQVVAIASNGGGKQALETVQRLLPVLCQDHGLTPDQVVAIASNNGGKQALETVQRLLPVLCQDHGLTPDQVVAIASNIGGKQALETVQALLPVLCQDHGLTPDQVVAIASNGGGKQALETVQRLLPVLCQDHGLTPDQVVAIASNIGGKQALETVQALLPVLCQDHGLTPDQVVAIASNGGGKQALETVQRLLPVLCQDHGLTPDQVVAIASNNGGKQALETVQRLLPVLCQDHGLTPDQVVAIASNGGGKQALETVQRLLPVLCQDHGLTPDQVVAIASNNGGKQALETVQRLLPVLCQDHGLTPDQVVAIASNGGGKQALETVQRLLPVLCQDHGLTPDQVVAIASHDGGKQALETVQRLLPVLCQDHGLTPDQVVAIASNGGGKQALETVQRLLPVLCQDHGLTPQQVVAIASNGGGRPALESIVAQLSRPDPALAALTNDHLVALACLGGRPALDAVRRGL
The experiment in a line: cell_activity; T cells, mostly above 70%.

The target in data set [1] is CS1 TALEN left V0 FokI G91A (synthetic, UniProt Q56830, G91A (FokI domain, SEQ ID NO:109 numbering)). As to the kind of experiment: cell_activity; paired with V0 monomer.
The target of data set [2] is CS1 TALEN left V0 FokI Y88A (synthetic, UniProt Q56830, Y88A (FokI domain, SEQ ID NO:109 numbering)). As to the kind of experiment: cell_activity; paired with V0 monomer.
The target in data set [3] is CS1 TALEN left V0 FokI D84A (synthetic, UniProt Q56830, D84A (FokI domain, SEQ ID NO:109 numbering)). As to the kind of experiment: cell_activity; paired with V0 monomer.
The target of a further data set is T2, GADPH (1) right V2 TALEN (synthetic, UniProt Q56830 SEQ:15-719).
T2 chain: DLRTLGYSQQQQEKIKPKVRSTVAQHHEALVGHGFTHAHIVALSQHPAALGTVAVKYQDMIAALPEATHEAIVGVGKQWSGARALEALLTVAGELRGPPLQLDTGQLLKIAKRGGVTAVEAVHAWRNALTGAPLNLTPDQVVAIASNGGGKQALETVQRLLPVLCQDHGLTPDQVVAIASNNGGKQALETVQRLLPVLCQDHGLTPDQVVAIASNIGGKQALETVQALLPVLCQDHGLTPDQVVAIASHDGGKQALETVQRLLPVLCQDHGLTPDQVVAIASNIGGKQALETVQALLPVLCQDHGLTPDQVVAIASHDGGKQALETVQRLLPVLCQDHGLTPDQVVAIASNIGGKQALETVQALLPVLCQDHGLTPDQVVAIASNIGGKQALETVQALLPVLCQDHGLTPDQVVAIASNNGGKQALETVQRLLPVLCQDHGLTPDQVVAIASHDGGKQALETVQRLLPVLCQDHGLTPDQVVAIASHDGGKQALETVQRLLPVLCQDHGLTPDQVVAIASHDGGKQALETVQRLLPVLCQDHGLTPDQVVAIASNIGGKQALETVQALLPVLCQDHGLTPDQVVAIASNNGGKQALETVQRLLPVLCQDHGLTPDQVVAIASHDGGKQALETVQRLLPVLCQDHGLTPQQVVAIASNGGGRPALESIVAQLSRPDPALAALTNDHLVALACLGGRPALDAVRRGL
The experiment in a line: cell_activity; T cells, mostly above 70%.

For the next data set, the target named is T3, GADPH (2) left V2 TALEN (synthetic, UniProt Q56830 SEQ:15-719).
T3 chain: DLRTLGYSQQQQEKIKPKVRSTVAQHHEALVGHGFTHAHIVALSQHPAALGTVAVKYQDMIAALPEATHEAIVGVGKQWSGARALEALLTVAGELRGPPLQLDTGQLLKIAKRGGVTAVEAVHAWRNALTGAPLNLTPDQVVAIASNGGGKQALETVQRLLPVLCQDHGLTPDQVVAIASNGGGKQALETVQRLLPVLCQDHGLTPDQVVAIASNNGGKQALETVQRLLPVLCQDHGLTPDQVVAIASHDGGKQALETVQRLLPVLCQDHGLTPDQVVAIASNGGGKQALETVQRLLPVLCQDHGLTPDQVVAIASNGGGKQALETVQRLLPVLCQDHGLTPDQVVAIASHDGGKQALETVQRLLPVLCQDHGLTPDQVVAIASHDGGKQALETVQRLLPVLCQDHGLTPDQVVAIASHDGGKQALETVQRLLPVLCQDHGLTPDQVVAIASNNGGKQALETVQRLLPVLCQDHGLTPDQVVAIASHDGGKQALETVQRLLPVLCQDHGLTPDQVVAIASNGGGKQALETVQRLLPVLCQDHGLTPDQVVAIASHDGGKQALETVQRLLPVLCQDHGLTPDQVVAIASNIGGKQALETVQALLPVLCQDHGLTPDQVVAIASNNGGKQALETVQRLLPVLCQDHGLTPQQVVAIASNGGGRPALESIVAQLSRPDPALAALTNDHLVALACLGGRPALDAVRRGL
The experiment in a line: cell_activity; T cells, mostly above 70%.

In another data set the target is T4, GADPH (1) left V2 TALEN (synthetic, UniProt Q56830 SEQ:15-719).
T4 chain: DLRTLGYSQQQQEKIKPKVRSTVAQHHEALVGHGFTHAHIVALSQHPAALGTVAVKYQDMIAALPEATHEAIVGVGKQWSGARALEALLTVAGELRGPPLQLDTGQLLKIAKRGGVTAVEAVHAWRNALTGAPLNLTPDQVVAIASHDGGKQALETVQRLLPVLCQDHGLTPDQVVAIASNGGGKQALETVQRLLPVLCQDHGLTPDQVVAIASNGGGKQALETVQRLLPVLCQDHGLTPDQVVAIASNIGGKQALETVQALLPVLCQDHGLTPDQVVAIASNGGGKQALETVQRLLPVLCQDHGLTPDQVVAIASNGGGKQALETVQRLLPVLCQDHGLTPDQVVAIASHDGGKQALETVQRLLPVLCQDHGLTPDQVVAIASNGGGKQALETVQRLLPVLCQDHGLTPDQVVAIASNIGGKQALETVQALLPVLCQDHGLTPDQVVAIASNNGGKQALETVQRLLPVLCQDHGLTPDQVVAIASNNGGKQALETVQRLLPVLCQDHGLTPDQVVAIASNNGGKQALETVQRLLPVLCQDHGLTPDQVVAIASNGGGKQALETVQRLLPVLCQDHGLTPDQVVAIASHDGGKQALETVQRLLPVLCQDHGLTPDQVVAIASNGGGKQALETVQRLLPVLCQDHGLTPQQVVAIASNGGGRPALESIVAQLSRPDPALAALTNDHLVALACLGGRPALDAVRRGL
As to the kind of experiment: cell_activity; T cells, mostly above 70%.

In the next data set the target is T5, IgH (2) right V2 TALEN (synthetic, UniProt Q56830 SEQ:15-719).
T5 chain: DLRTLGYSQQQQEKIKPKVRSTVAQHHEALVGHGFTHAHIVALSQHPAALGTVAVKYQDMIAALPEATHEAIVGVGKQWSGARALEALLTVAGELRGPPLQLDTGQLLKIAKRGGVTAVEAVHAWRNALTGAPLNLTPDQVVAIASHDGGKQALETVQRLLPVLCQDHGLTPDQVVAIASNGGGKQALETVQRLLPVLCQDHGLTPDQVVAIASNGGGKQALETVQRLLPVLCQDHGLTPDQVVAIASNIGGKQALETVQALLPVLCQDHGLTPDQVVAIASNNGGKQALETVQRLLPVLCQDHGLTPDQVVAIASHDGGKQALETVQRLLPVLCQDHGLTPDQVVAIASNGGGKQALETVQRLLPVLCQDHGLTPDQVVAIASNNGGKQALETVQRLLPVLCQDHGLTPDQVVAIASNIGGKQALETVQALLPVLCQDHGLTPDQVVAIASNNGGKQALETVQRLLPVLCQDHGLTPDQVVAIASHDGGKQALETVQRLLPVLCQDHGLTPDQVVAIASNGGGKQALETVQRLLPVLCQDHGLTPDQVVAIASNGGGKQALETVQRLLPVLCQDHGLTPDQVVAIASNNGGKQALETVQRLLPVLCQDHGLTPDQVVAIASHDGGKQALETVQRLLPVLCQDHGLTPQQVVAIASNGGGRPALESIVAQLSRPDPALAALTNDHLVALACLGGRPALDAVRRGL
As to the kind of experiment: cell_activity; T cells, mostly above 70%.

Another data set has as its target T6, GADPH (2) right V2 TALEN (synthetic, UniProt Q56830 SEQ:15-719).
T6 chain: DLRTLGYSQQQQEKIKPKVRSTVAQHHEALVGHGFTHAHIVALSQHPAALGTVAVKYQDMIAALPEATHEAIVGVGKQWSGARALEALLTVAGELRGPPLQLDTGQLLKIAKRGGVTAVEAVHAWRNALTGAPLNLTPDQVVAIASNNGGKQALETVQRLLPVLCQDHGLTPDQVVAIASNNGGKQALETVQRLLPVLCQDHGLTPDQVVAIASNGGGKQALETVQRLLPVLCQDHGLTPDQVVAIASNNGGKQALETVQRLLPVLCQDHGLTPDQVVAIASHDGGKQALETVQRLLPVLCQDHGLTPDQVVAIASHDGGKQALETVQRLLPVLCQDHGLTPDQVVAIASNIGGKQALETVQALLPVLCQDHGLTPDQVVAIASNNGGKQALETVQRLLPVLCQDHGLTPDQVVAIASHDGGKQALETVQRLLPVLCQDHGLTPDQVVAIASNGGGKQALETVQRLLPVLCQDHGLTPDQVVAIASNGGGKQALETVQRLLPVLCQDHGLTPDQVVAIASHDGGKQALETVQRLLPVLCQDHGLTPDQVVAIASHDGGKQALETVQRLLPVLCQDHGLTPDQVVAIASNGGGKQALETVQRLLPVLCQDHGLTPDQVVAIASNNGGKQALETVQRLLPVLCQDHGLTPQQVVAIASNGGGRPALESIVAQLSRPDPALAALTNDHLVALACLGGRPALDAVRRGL
The experiment in a line: cell_activity; T cells, mostly above 70%.

B1: IgH (2) left half-site (dsDNA)
DNA 1: TGAGTGATATGTGTCTG
DNA 2: CAGACACATATCACTCA
As to B1, in the data set with IgH (2) left V2 TALEN, the activity is more than 50 % indels.

B2: CS1 left half-site (dsDNA)
DNA 1: TTCCAGAGAGCAATATG
DNA 2: CATATTGCTCTCTGGAA
B2: the binding signal in data set [1], in data set [2] and in [3] was > 100 % of WT FokI in each case.

B3: GADPH (1) right half-site (dsDNA)
DNA 1: AGCTGGGCTTGTGTCAA
DNA 2: TTGACACAAGCCCAGCT
In the case of B3, the activity with GADPH (1) right V2 TALEN was more than 50 % indels.

B4: GADPH (2) left half-site (dsDNA)
DNA 1: TTTGCTTCCCGCTCAGA
DNA 2: TCTGAGCGGGAAGCAAA
In the data set with GADPH (2) left V2 TALEN, B4 registered an activity of more than 50 % indels.

B5: GADPH (1) left half-site (dsDNA)
DNA 1: TCTTATTCTAGGGTCTG
DNA 2: CAGACCCTAGAATAAGA
In the data set with GADPH (1) left V2 TALEN, B5 came in with an activity of more than 50 % indels.

B6: IgH (2) right half-site (dsDNA)
DNA 1: AGCAAGCTCAGCTAAGA
DNA 2: TCTTAGCTGAGCTTGCT
The molecule B6 had an activity with IgH (2) right V2 TALEN of more than 50 % indels.

B7: GADPH (2) right half-site (dsDNA)
DNA 1: ACAGGAAGCTGGCACCA
DNA 2: TGGTGCCAGCTTCCTGT
In the data set with GADPH (2) right V2 TALEN, B7 returned an activity of more than 50 % indels.

The values above are taken from patent publication US20250002945, “NEW TALE PROTEIN SCAFFOLDS WITH IMPROVED ON-TARGET/OFF-TARGET ACTIVITY RATIOS” (CELLECTIS SA, published 2025).
